Measured values reported in patent publication US20250188189A1 (published 2025).
Where a chain is given by its changes, count along the chain named.

T1: plasma-derived human activated protein C (APC) (UniProt P04070 43-461)
T1 chain: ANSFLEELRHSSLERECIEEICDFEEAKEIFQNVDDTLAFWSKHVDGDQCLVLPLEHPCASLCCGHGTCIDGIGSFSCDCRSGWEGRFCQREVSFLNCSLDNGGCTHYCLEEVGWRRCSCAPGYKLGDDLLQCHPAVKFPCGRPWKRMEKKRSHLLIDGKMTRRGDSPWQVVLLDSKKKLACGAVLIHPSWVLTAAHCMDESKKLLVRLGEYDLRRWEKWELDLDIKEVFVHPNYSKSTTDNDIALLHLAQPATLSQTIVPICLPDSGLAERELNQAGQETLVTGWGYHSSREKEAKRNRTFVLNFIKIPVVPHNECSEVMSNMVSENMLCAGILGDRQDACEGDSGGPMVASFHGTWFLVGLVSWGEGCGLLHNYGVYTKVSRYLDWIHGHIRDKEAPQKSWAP

B1: TPP-24727 (antibody, V domains shown)
VH: EVQLVESGGGLVQPGGSLRLSCAASGFTFSNYYLNWVRQAPGKGLEWVGDIRLKSNNYEKHYAESVKGRFTISRDDSKNSLYLQMNSLKTEDTAVYYCAREGDYFDYWGQGTLVTVSS
VL: DIVLTQSPASLAVSPGQRATITCKASESVDSFGATFMHWYQQKPGQPPKLLIYLASNLESGVPARFSGSGSGTDFTLTINPVEADDTANYYCQQNNEDPYTFGQGTKLEIKR
B2: TPP-26934 (antibody, V domains shown)
VH: B1 VH with L34I
VL: EIVLTQSPGTLSLSPGERATLSCRASQSVSSFGATFMHWYQQKPGQPPKLLIYLASNRASGVPDRFSGSGSGTDFTLTINPVEADDTANYYCQQNNEDPYTFGQGTKLEIKR
B3: TPP-26920 (antibody, V domains shown)
VH: B1 VH with L34M, N35S
VL: B2 VL with Q41L, P47S, K49Q, T78K, N80S, P81R, D85E, T87V, A88G, N89V
B4: TPP-26870 (antibody, V domains shown)
VH: EVQLVESGGGLVQPGGSLRLSCAASGFTFSNYYMNWVRQAPGKGLEWVSYISSSSSTIYYADSVKGRFTISRDDSKNSLYLQMNSLKTEDTAVYYCAREGDYFDYWGQGTLVTVSS
VL: B2 VL with T78K, N80S, P81R, D85E, T87V, A88G, N89V
B5: TPP-24739 (antibody, V domains shown)
VH: EVQLVESGGGLVQPGGSLRLSCAASGFTFSNYYMNWVRQAPGQGLEWMGRIIPILGIANYAQKFQGRFTISRDDSKNSLYLQMNSLKTEDTAVYYCAREGDYFDYWGQGTLVTVSS
B6: TPP-24743 (antibody, V domains shown)
VH: B5 VH with N35S
B7: TPP-24740 (antibody, V domains shown)
VH: B1 VH with L34M, N35S
B8: TPP-24744 (antibody, V domains shown)
VH: B1 VH with L34I
B9: TPP-24745 (antibody, V domains shown)
VH: B4 VH with M34I
B10: TPP-24777 (antibody, V domains shown)
VH: B4 VH with N31S, M34L
B11: TPP-24737 (antibody, V domains shown)
VH: B4 VH
B12: TPP-24738 (antibody, V domains shown)
VH: EVQLVESGGGLVQPGGSLRLSCAASGFTFSNYYMNWVRQAPGKGLEWVGRIKSKTDGGTTDYAAPVKGRFTISRDDSKNSLYLQMNSLKTEDTAVYYCAREGDYFDYWGQGTLVTVSS
B13: TPP-24750 (antibody, V domains shown)
VH: B12 VH with M34I, N35S
B14: TPP-24766 (antibody, V domains shown)
VH: B12 VH with Y32A, N35S
B15: hAPC (enzyme)
chain: T1 chain

Target: T1, plasma-derived human activated protein …
Test: SPR

Row | Binder | Kd [nM]
1 | B1 | 44.8

Target: T1, plasma-derived human activated protein …
Test: SPR
Remark: another data set of the same source

Row | Binder | Kd [nM]
2 | B2 | 19.8
3 | B3 | 28.1
4 | B1 | 18.7
5 | B4 | 12.9

Target: T1, plasma-derived human activated protein …
Test: SPR
Remark: another data set of the same source

Row | Binder | Kd [nM]
6 | B5 | 0.737
7 | B6 | 0.174
8 | B7 | 60.5
9 | B8 | 22.8
10 | B1 | 44.8
11 | B9 | 76.4
12 | B10 | 31.4
13 | B11 | 12.5
14 | B12 | 1.81
15 | B13 | 13200
16 | B14 | 29700

target: TPP-29862; test: SPR; head prints nM; kd/ka gives M

Row | Binder | Kd [nM]
17 | B15 | 11

Target: T1, plasma-derived human activated protein …
Test: SPR; head prints nM; kd/ka gives M

Row | Binder | Kd [nM]
18 | B4 | 40
